Reference: article doi:10.1101/2025.06.28.661730

Target: complement receptor 2 (CR2, CD21) on human follicular dendritic cells (human (endogenous in tonsil FDCs)) (UniProt P20023)
Sequence (P20023 21-1033): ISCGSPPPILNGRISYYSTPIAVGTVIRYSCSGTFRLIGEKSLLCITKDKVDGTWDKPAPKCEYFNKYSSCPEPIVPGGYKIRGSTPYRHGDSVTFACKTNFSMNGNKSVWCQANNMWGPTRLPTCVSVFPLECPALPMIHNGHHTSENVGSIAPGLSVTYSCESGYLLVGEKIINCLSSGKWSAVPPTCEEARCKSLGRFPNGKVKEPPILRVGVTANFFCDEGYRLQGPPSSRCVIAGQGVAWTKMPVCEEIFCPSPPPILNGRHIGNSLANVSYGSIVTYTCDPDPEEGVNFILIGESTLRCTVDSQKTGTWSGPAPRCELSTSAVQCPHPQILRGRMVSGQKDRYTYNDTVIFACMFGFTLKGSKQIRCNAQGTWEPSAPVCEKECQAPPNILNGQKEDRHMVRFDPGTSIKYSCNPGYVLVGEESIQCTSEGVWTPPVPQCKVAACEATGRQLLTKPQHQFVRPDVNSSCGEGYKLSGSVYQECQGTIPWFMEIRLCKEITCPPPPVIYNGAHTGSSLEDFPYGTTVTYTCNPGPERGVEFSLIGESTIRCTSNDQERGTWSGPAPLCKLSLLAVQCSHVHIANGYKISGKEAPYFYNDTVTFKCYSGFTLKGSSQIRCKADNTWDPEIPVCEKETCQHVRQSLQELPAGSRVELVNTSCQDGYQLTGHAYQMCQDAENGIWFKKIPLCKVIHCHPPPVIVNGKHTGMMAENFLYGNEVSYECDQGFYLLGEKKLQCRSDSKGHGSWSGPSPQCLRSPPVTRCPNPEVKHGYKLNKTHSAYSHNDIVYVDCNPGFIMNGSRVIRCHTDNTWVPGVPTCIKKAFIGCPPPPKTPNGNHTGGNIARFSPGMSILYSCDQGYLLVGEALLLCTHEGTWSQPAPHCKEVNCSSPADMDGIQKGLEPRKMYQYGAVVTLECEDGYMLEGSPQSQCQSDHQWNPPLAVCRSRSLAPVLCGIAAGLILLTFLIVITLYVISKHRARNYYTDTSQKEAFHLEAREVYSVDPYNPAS

“ConM SOSIP.v7 Env trimer fused to human complement fragment C3d (from UniProt P01024 1002-1303)” gave a Ca2+ flux of PGT121-expressing Ramos B cells, AUC at 0.01 µg/ml Env-equivalent (tested at 10, 1, 0.1, 0.01 and 0.001 µg/ml); ConM Env alone gave AUC 5 of 442 AUC.
